Measurements published in paper PMC5945002.

Target: BrvH, flavin-dependent halogenase (predicted gene 12 of the Botany Bay metagenome) (Brevundimonas BAL3 (most likely; gene found in the Botany Bay metagenome))
Test: SEC; 16/60 Superdex 200, 10 mM Tris 20 mM NaCl pH 8, 4 °C, flow rate 1 mL/min; last step of the purification for crystallisation

How did the stoichiometry N turn out when “BrvH, flavin-dependent halogenase (predicted gene 12 of the Botany Bay metagenome) (enzyme)” was run?
The stoichiometry N was 2.
